Legend:
HLA-A*31:01 = test: IEDB peptide-MHC binding, purified MHC/competitive/fluorescence; filed as Kd, often an IC50 or EC50 that approximates it; ≥ and ≤ were set here for values at or beyond the usual limits of such assays
HLA-A*03:01 = test: IEDB peptide-MHC binding, purified MHC/direct/fluorescence; filed as Kd, often an IC50 or EC50 that approximates it; ≥ and ≤ were set here for values at or beyond the usual limits of such assays
HLA-A*11:01 [1] = test: as above
HLA-A*11:01 [2] = test: IEDB peptide-MHC binding, purified MHC/competitive/fluorescence; ≥ and ≤ were set here for values at or beyond the usual limits of such assays
HLA-B*15:17 [3] = test: IEDB peptide-MHC binding, purified MHC/direct/fluorescence; filed as Kd, often an IC50 or EC50 that approximates it; ≥ and ≤ were set here for values at or beyond the usual limits of such assays
HLA-B*58:01 = test: as above
HLA-B*57:01 [4] = test: as above
HLA-B*48:01 = test: as above
HLA-A*29:02 = test: IEDB peptide-MHC binding, purified MHC/competitive/fluorescence; filed as Kd, often an IC50 or EC50 that approximates it; ≥ and ≤ were set here for values at or beyond the usual limits of such assays
HLA-A*32:01 = test: IEDB peptide-MHC binding, purified MHC/competitive/radioactivity; filed as Kd, often an IC50 or EC50 that approximates it; ≥ and ≤ were set here for values at or beyond the usual limits of such assays
HLA-B*15:01 = test: as above
HLA-B*15:03 = test: as above
HLA-A*30:01 = test: as above
HLA-B*08:01 = test: as above
HLA-A*02:02 = test: as above; conditions: source organism: Vaccinia virus WR
HLA-A*02:03 [5] = test: as above; conditions: source organism: Vaccinia virus WR
HLA-A*02:06 = test: as above; conditions: source organism: Vaccinia virus WR
HLA-A*02:12 [6] = test: IEDB peptide-MHC binding, purified MHC/competitive/fluorescence; filed as Kd, often an IC50 or EC50 that approximates it; ≥ and ≤ were set here for values at or beyond the usual limits of such assays; conditions: source organism: Toxoplasma gondii
HLA-A*02:01 = test: as above; conditions: source organism: Toxoplasma gondii
HLA-B*83:01 = test: as above; conditions: source organism: Mycobacterium tuberculosis variant bovis
HLA-B*45:06 = test: as above; conditions: source organism: Mycobacterium tuberculosis variant bovis
HLA-B*15:42 = test: as above; conditions: source organism: Mycobacterium tuberculosis variant bovis
HLA-B*40:01 = test: IEDB peptide-MHC binding, purified MHC/direct/fluorescence; filed as Kd, often an IC50 or EC50 that approximates it; ≥ and ≤ were set here for values at or beyond the usual limits of such assays; conditions: source organism: Mycobacterium tuberculosis variant bovis
HLA-A*02:03 [7] = test: as above; conditions: source organism: Mycobacterium tuberculosis str. Haarlem
HLA-A*69:01 [8] = test: as above; conditions: source organism: Mycobacterium tuberculosis
HLA-B*39:01 = test: IEDB peptide-MHC binding, purified MHC/competitive/fluorescence; filed as Kd, often an IC50 or EC50 that approximates it; ≥ and ≤ were set here for values at or beyond the usual limits of such assays; conditions: source organism: Kurkino virus
HLA-A*69:01 [9] = test: as above; conditions: source organism: Kurkino virus
HLA-A*26:01 = test: as above; conditions: source organism: Kurkino virus
HLA-B*51:01 = test: as above; conditions: source organism: Kurkino virus
HLA-B*27:03 = test: as above; conditions: source organism: Kurkino virus
HLA-B*15:17 [10] = test: as above; conditions: source organism: Kurkino virus
HLA-B*18:01 = test: as above; conditions: source organism: Kurkino virus
HLA-B*46:01 = test: as above; conditions: source organism: Kurkino virus
HLA-B*57:01 [11] = test: as above; conditions: source organism: Kurkino virus
HLA-A*02:12 [12] = test: IEDB peptide-MHC binding, purified MHC/direct/fluorescence; filed as Kd, often an IC50 or EC50 that approximates it; ≥ and ≤ were set here for values at or beyond the usual limits of such assays; conditions: source organism: Convict Creek 107 virus
HLA-A*02:19 = test: as above; conditions: source organism: Convict Creek 107 virus
HLA-B*27:05 = test: as above; conditions: source organism: West Nile virus
[13] = source organism: Mycobacterium tuberculosis
[14] = source organism: Vaccinia virus WR
[15] = source organism: Vibrio vulnificus YJ016
[16] = source organism: Bacillus anthracis
[17] = source organism: Giardia lamblia ATCC 50803
[18] = source organism: Camelpox virus CMS
[19] = source organism: Eastern equine encephalitis virus (STRAIN VA33[TEN BROECK])
[20] = source organism: Vaccinia virus Copenhagen
[21] = source organism: Vaccinia virus

AAMVLLLRK
Kd (HLA-A*31:01; source organism: Mycobacterium tuberculosis variant bovis BCG str. Pasteur 1173P2): ≥ 20000 nM | Kd (HLA-A*03:01; [13]): 79.5 nM | Kd (HLA-A*11:01 [1]; [13]): ≤ 1 nM

ANNNRLPKR
IC50 (HLA-A*11:01 [2]; [14]): 11700 nM

ATGFPFFDR
Kd (HLA-A*31:01; [15]): 2.35 nM | Kd (HLA-A*03:01; [15]): ≥ 20000 nM | Kd (HLA-A*11:01 [1]; [15]): 1.1 nM

CSTLPFHTW
Kd (HLA-B*15:17 [3]; [16]): 1.2 nM | Kd (HLA-B*58:01; [16]): 3.8 nM | Kd (HLA-B*57:01 [4]; [16]): 7.1 nM

FSLGQGVKF
Kd (HLA-B*15:17 [3]; source organism: Shigella flexneri): 1.9 nM

HMPAARPEL
Kd (HLA-B*48:01; [17]): 593 nM

IFFLPQFYY
Kd (HLA-A*29:02; source organism: Listeria monocytogenes FSL R2-561): 1.6 nM

ISESRFQSL
Kd (HLA-A*32:01; [14]): 11100 nM | Kd (HLA-B*15:01; [14]): 2890 nM | Kd (HLA-B*15:03; [14]): 147 nM | Kd (HLA-A*30:01; [14]): 5920 nM | Kd (HLA-B*08:01; [14]): 39.6 nM

ISIPRSVGF
Kd (HLA-B*15:17 [3]; [18]): ≤ 1 nM | Kd (HLA-B*58:01; [18]): 30.3 nM | Kd (HLA-B*57:01 [4]; [18]): 85.9 nM

ITYGSVSWR
Kd (HLA-A*31:01; source organism: Eastern equine encephalitis virus): 1.5 nM | Kd (HLA-A*03:01; [19]): 61.2 nM | Kd (HLA-A*11:01 [1]; [19]): 6.8 nM

KMAVEVGSI
Kd (HLA-A*02:02): 30.8 nM | Kd (HLA-A*02:03 [5]): 2.78 nM | Kd (HLA-B*15:03; [14]): 335 nM | Kd (HLA-A*02:06): 119 nM

LLKDRNELF
Kd (HLA-A*32:01; [14]): 3070 nM | Kd (HLA-B*15:01; [14]): 1.82 nM | Kd (HLA-B*15:03; [14]): 15.7 nM | Kd (HLA-A*30:01; [14]): 108 nM | Kd (HLA-B*08:01; [14]): 40.6 nM

LSINSSFYF
Kd (HLA-A*32:01; source organism: Variola virus): 2960 nM | Kd (HLA-B*15:01; source organism: Variola virus): 1.02 nM | Kd (HLA-B*15:03; source organism: Variola virus): 4.81 nM | Kd (HLA-A*30:01; source organism: Variola virus): 970 nM | Kd (HLA-B*08:01; source organism: Variola virus): 3160 nM

METMFFIRF
Kd (HLA-B*15:03; [14]): 52.6 nM

MVKNNKIQK
Kd (HLA-A*32:01; [14]): ≥ 77800 nM | Kd (HLA-B*15:01; [14]): 18300 nM | Kd (HLA-B*15:03; [14]): 9550 nM | Kd (HLA-A*30:01; [14]): 11.8 nM | Kd (HLA-B*08:01; [14]): 17800 nM

NLMVNEQAA
Kd (HLA-A*02:12 [6]): 18.9 nM | Kd (HLA-A*02:01): ≥ 20000 nM

NTWNQITKF
Kd (HLA-B*15:17 [3]; [17]): 76.4 nM | Kd (HLA-B*58:01; [17]): 905 nM | Kd (HLA-B*57:01 [4]; [17]): 1110 nM

QIVAYFSEF
Kd (HLA-A*32:01; [14]): 70.4 nM | Kd (HLA-B*15:01; [14]): 1.38 nM | Kd (HLA-B*15:03; [14]): 7.85 nM | Kd (HLA-A*30:01; [14]): 12700 nM | Kd (HLA-B*08:01; [14]): 1930 nM

REAPYELNI
Kd (HLA-B*83:01): ≥ 5000 nM | Kd (HLA-B*45:06): ≥ 5000 nM | Kd (HLA-B*15:42): ≥ 5000 nM | Kd (HLA-B*40:01): 62.8 nM

RREKRSVAL
Kd (HLA-B*08:01; source organism: Dengue virus 2 Jamaica/1409/1983): 40.9 nM | Kd (HLA-B*48:01; source organism: Dengue virus): 842 nM

RVIPPSLLR
Kd (HLA-A*31:01; source organism: Mycobacterium tuberculosis C): 13.5 nM | Kd (HLA-A*03:01; source organism: Mycobacterium leprae): 1750 nM

SLNECIISF
Kd (HLA-B*15:03; [14]): 66.9 nM

SMVQILSSL
Kd (HLA-B*15:03; [20]): ≥ 77200 nM

TITEKTFKD
IC50 (HLA-A*11:01 [2]; [20]): 36500 nM

TMKERRPIL
Kd (HLA-A*32:01; [14]): 2210 nM | Kd (HLA-B*15:01; [14]): 808 nM | Kd (HLA-B*15:03; [14]): 397 nM | Kd (HLA-A*30:01; [14]): 4730 nM | Kd (HLA-B*08:01; [14]): 1.83 nM

TTQSIHENK
IC50 (HLA-A*11:01 [2]; [21]): 6040 nM

VLFEVFVVF
Kd (HLA-A*32:01; [14]): 7.8 nM | Kd (HLA-B*15:01; [14]): 2.85 nM | Kd (HLA-B*15:03; [14]): 4.85 nM | Kd (HLA-A*30:01; [14]): ≥ 24400 nM | Kd (HLA-B*08:01; [14]): 5110 nM

VLLDSITRL
Kd (HLA-A*02:03 [7]): ≤ 1 nM | Kd (HLA-A*69:01 [8]): 4350 nM

VMADFDLEM
Kd (HLA-A*29:02; source organism: Vibrio cholerae NCTC 8457): ≤ 0.1 nM

VQTIVFIWF
Kd (HLA-B*15:03; [21]): 306 nM

WFLYVSQQI
Kd (HLA-B*39:01): ≥ 20000 nM | Kd (HLA-A*69:01 [9]): ≥ 20000 nM | Kd (HLA-A*26:01): ≥ 20000 nM | Kd (HLA-B*51:01): ≥ 20000 nM | Kd (HLA-B*27:03): ≥ 20000 nM | Kd (HLA-B*15:17 [10]): ≥ 20000 nM | Kd (HLA-B*18:01): ≥ 20000 nM | Kd (HLA-B*46:01): ≥ 20000 nM | Kd (HLA-B*57:01 [11]): ≥ 20000 nM | Kd (HLA-A*02:12 [12]): ≥ 20000 nM | Kd (HLA-A*03:01; source organism: Convict Creek 107 virus): ≥ 20000 nM | Kd (HLA-A*02:19): ≥ 20000 nM

WSIYLSLHY
Kd (HLA-A*32:01; [14]): ≥ 29000 nM | Kd (HLA-B*15:01; [14]): 48.2 nM | Kd (HLA-B*15:03; [14]): 8.85 nM | Kd (HLA-A*30:01; [14]): 17000 nM | Kd (HLA-B*08:01; [14]): 2720 nM

YFNDPALGH
Kd (HLA-A*29:02; [17]): 114 nM

YQSLSPPPF
Kd (HLA-A*32:01; [14]): 4740 nM | Kd (HLA-B*15:01; [14]): 5050 nM | Kd (HLA-B*15:03; [14]): 0.0611 nM | Kd (HLA-A*30:01; [14]): 0.503 nM | Kd (HLA-B*08:01; [14]): ≥ 33400 nM

YRLRGEERK
Kd (HLA-B*48:01; source organism: West Nile virus): ≥ 20000 nM | Kd (HLA-B*27:05): 883 nM

YYFDIYNKQ
Kd (HLA-A*29:02; source organism: Listeria monocytogenes EGD-e): 73 nM
